Measured values as given in patent publication US20060099210.

Experiments:
[1] = test system: GST-2E11 (fusion protein between GST and a KCNQ2-15b polypeptide comprising exons 13, 14 and 15b; encoded by pGEX-2TK-2E11)
[2] = test system: GST (glutathione S-transferase expressed from the pGEX2TK plasmid; negative control) [GST: P08515]
GST (glutathione S-transferase expressed from the pGEX2TK plasmid; negative control) [GST: P08515], sequence (P08515 whole entry): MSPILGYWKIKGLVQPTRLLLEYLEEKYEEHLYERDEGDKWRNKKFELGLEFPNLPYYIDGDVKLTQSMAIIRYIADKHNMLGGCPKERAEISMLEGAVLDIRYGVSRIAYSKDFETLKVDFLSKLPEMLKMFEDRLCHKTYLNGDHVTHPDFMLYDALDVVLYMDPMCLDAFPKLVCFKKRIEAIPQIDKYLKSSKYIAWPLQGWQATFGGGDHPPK

GST-2E11 (fusion protein between GST and a KCNQ2-15b polypeptide comprising exons 13, 14 and 15b; encoded by pGEX-2TK-2E11), sequence (chain, as listed by the source): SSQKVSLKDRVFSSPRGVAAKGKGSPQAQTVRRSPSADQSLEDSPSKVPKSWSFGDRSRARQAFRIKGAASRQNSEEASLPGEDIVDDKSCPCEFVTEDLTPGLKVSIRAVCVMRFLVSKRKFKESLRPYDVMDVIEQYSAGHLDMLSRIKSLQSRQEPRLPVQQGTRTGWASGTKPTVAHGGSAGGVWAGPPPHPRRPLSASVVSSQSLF

Row | Substance | in vitro phosphorylation with [32P]γATP, SDS-PAGE and autoradiography [1] | in vitro phosphorylation with [32P]γATP, SDS-PAGE and autoradiography (negative control with GST instead of GST-2E11) [2] | in vitro phosphorylation in the presence of 5 µg of CREB phosphopeptides as competitor [1]
1 | Protein Kinase A Catalytic Subunit (PKA from bovine heart, Sigma) | a band located at a position corresponding to a protein of a size of about 45 kD did appear | No bands appeared in the three lines corresponding to the negative controls | 
2 | recombinant GSK-3β kinase (New England Biolabs) | a band located at a position corresponding to a protein of a size of about 45 kD did appear | No bands appeared in the three lines corresponding to the negative controls | A band did still appear at a position corresponding to the size of GST-2E11, but the intensity of the band was very significantly lower
